This note sets out measurements from patent US20130143798A1 (Novo Nordisk, published 2013).

The chains are these.
B1: N^ε24-([2-[2-[2-[[2-[2-[2-[[(4S)-5-hydroxy-4-[(18-hydroxy-18-oxooctadecanoyl)amino]-5-oxopentanoyl]amino]ethoxy]ethoxy]acetyl]amino]ethoxy]ethoxy]acetyl])[Lys^1 … (peptide)
peptide: HSQGTFTSDYSKYLDSKAAQEFVK([AEEA-AEEA-γGlu-C18 diacid])WLLNT-NH2
modifications: N-terminus assumed
SMILES: CC(C)C[C@H](NC(=O)[C@H](Cc1ccc(O)cc1)NC(=O)[C@H](CCCCN)NC(=O)[C@H](CO)NC(=O)[C@H](Cc1ccc(O)cc1)NC(=O)[C@H](CC(=O)O)NC(=O)[C@H](CO)NC(=O)[C@@H](NC(=O)[C@H](Cc1ccccc1)NC(=O)[C@@H](NC(=O)CNC(=O)[C@H](CCC(N)=O)NC(=O)[C@H](CO)NC(=O)[C@@H](N)Cc1c[nH]cn1)[C@@H](C)O)[C@@H](C)O)C(=O)N[C@@H](CC(=O)O)C(=O)N[C@@H](CO)C(=O)N[C@@H](CCCCN)C(=O)N[C@@H](C)C(=O)N[C@@H](C)C(=O)N[C@@H](CCC(N)=O)C(=O)N[C@@H](CCC(=O)O)C(=O)N[C@@H](Cc1ccccc1)C(=O)N[C@H](C(=O)N[C@@H](CCCCNC(=O)COCCOCCNC(=O)COCCOCCNC(=O)CC[C@H](NC(=O)CCCCCCCCCCCCCCCCC(=O)O)C(=O)O)C(=O)N[C@@H](Cc1c[nH]c2ccccc12)C(=O)N[C@@H](CC(C)C)C(=O)N[C@@H](CC(C)C)C(=O)N[C@@H](CC(N)=O)C(=O)N[C@H](C(N)=O)[C@@H](C)O)C(C)C
B2: N^ε16-([2-[2-[2-[[2-[2-[2-[[(4S)-5-hydroxy-4-[(18-hydroxy-18-oxooctadecanoyl)amino]-5-oxopentanoyl]amino]ethoxy]ethoxy]acetyl]amino]ethoxy]ethoxy]acetyl])[Aib^2 … (peptide)
peptide: H[Aib]QGTFTSDYSKYLDK([AEEA-AEEA-γGlu-C18 diacid])KRAQEFVQWLLNT-NH2
modifications: N-terminus assumed
SMILES: CC(C)C[C@H](NC(=O)[C@H](Cc1ccc(O)cc1)NC(=O)[C@H](CCCCN)NC(=O)[C@H](CO)NC(=O)[C@H](Cc1ccc(O)cc1)NC(=O)[C@H](CC(=O)O)NC(=O)[C@H](CO)NC(=O)[C@@H](NC(=O)[C@H](Cc1ccccc1)NC(=O)[C@@H](NC(=O)CNC(=O)[C@H](CCC(N)=O)NC(=O)C(C)(C)NC(=O)[C@@H](N)Cc1c[nH]cn1)[C@@H](C)O)[C@@H](C)O)C(=O)N[C@@H](CC(=O)O)C(=O)N[C@@H](CCCCNC(=O)COCCOCCNC(=O)COCCOCCNC(=O)CC[C@H](NC(=O)CCCCCCCCCCCCCCCCC(=O)O)C(=O)O)C(=O)N[C@@H](CCCCN)C(=O)N[C@@H](CCCNC(=N)N)C(=O)N[C@@H](C)C(=O)N[C@@H](CCC(N)=O)C(=O)N[C@@H](CCC(=O)O)C(=O)N[C@@H](Cc1ccccc1)C(=O)N[C@H](C(=O)N[C@@H](CCC(N)=O)C(=O)N[C@@H](Cc1c[nH]c2ccccc12)C(=O)N[C@@H](CC(C)C)C(=O)N[C@@H](CC(C)C)C(=O)N[C@@H](CC(N)=O)C(=O)N[C@H](C(N)=O)[C@@H](C)O)C(C)C
B3: N^ε24-([2-[2-[2-[[2-[2-[2-[[(4S)-5-hydroxy-4-[(18-hydroxy-18-oxooctadecanoyl)amino]-5-oxopentanoyl]amino]ethoxy]ethoxy]acetyl]amino]ethoxy]ethoxy]acetyl])[Glu^1 … (peptide)
peptide: HSQGTFTSDYSKYLDEKRAQEFVK([AEEA-AEEA-γGlu-C18 diacid])WLLNT-NH2
modifications: N-terminus assumed
SMILES: CC(C)C[C@H](NC(=O)[C@H](Cc1ccc(O)cc1)NC(=O)[C@H](CCCCN)NC(=O)[C@H](CO)NC(=O)[C@H](Cc1ccc(O)cc1)NC(=O)[C@H](CC(=O)O)NC(=O)[C@H](CO)NC(=O)[C@@H](NC(=O)[C@H](Cc1ccccc1)NC(=O)[C@@H](NC(=O)CNC(=O)[C@H](CCC(N)=O)NC(=O)[C@H](CO)NC(=O)[C@@H](N)Cc1c[nH]cn1)[C@@H](C)O)[C@@H](C)O)C(=O)N[C@@H](CC(=O)O)C(=O)N[C@@H](CCC(=O)O)C(=O)N[C@@H](CCCCN)C(=O)N[C@@H](CCCNC(=N)N)C(=O)N[C@@H](C)C(=O)N[C@@H](CCC(N)=O)C(=O)N[C@@H](CCC(=O)O)C(=O)N[C@@H](Cc1ccccc1)C(=O)N[C@H](C(=O)N[C@@H](CCCCNC(=O)COCCOCCNC(=O)COCCOCCNC(=O)CC[C@H](NC(=O)CCCCCCCCCCCCCCCCC(=O)O)C(=O)O)C(=O)N[C@@H](Cc1c[nH]c2ccccc12)C(=O)N[C@@H](CC(C)C)C(=O)N[C@@H](CC(C)C)C(=O)N[C@@H](CC(N)=O)C(=O)N[C@H](C(N)=O)[C@@H](C)O)C(C)C
B4: N^ε24-([2-[2-[2-[[2-[2-[2-[[(4S)-5-hydroxy-4-[(18-hydroxy-18-oxooctadecanoyl)amino]-5-oxopentanoyl]amino]ethoxy]ethoxy]acetyl]amino]ethoxy]ethoxy]acetyl])[Glu^1 … (peptide)
peptide: HSQGTFTSDYSKYLDEKAAQEFVK([AEEA-AEEA-γGlu-C18 diacid])WLLNT-NH2
modifications: N-terminus assumed
SMILES: CC(C)C[C@H](NC(=O)[C@H](Cc1ccc(O)cc1)NC(=O)[C@H](CCCCN)NC(=O)[C@H](CO)NC(=O)[C@H](Cc1ccc(O)cc1)NC(=O)[C@H](CC(=O)O)NC(=O)[C@H](CO)NC(=O)[C@@H](NC(=O)[C@H](Cc1ccccc1)NC(=O)[C@@H](NC(=O)CNC(=O)[C@H](CCC(N)=O)NC(=O)[C@H](CO)NC(=O)[C@@H](N)Cc1c[nH]cn1)[C@@H](C)O)[C@@H](C)O)C(=O)N[C@@H](CC(=O)O)C(=O)N[C@@H](CCC(=O)O)C(=O)N[C@@H](CCCCN)C(=O)N[C@@H](C)C(=O)N[C@@H](C)C(=O)N[C@@H](CCC(N)=O)C(=O)N[C@@H](CCC(=O)O)C(=O)N[C@@H](Cc1ccccc1)C(=O)N[C@H](C(=O)N[C@@H](CCCCNC(=O)COCCOCCNC(=O)COCCOCCNC(=O)CC[C@H](NC(=O)CCCCCCCCCCCCCCCCC(=O)O)C(=O)O)C(=O)N[C@@H](Cc1c[nH]c2ccccc12)C(=O)N[C@@H](CC(C)C)C(=O)N[C@@H](CC(C)C)C(=O)N[C@@H](CC(N)=O)C(=O)N[C@H](C(N)=O)[C@@H](C)O)C(C)C
B5: N^ε24-([2-[2-[2-[[2-[2-[2-[[(4S)-5-hydroxy-4-[(18-hydroxy-18-oxooctadecanoyl)amino]-5-oxopentanoyl]amino]ethoxy]ethoxy]acetyl]amino]ethoxy]ethoxy]acetyl]) … (peptide)
peptide: HSQGTFTSDYSKYLDSKRAQEFVK([AEEA-AEEA-γGlu-C18 diacid])WLLST-NH2
modifications: N-terminus assumed
SMILES: CC(C)C[C@H](NC(=O)[C@H](Cc1ccc(O)cc1)NC(=O)[C@H](CCCCN)NC(=O)[C@H](CO)NC(=O)[C@H](Cc1ccc(O)cc1)NC(=O)[C@H](CC(=O)O)NC(=O)[C@H](CO)NC(=O)[C@@H](NC(=O)[C@H](Cc1ccccc1)NC(=O)[C@@H](NC(=O)CNC(=O)[C@H](CCC(N)=O)NC(=O)[C@H](CO)NC(=O)[C@@H](N)Cc1c[nH]cn1)[C@@H](C)O)[C@@H](C)O)C(=O)N[C@@H](CC(=O)O)C(=O)N[C@@H](CO)C(=O)N[C@@H](CCCCN)C(=O)N[C@@H](CCCNC(=N)N)C(=O)N[C@@H](C)C(=O)N[C@@H](CCC(N)=O)C(=O)N[C@@H](CCC(=O)O)C(=O)N[C@@H](Cc1ccccc1)C(=O)N[C@H](C(=O)N[C@@H](CCCCNC(=O)COCCOCCNC(=O)COCCOCCNC(=O)CC[C@H](NC(=O)CCCCCCCCCCCCCCCCC(=O)O)C(=O)O)C(=O)N[C@@H](Cc1c[nH]c2ccccc12)C(=O)N[C@@H](CC(C)C)C(=O)N[C@@H](CC(C)C)C(=O)N[C@@H](CO)C(=O)N[C@H](C(N)=O)[C@@H](C)O)C(C)C
B6: N^ε24-([2-[2-[2-[[2-[2-[2-[[(4S)-5-hydroxy-4-[(18-hydroxy-18-oxooctadecanoyl)amino]-5-oxopentanoyl]amino]ethoxy]ethoxy]acetyl]amino]ethoxy]ethoxy]acetyl])[Lys^1 … (peptide)
peptide: HSQGTFTSDYSKYLDSKRAQEFVK([AEEA-AEEA-γGlu-C18 diacid])WLLET-NH2
modifications: N-terminus assumed
SMILES: CC(C)C[C@H](NC(=O)[C@H](Cc1ccc(O)cc1)NC(=O)[C@H](CCCCN)NC(=O)[C@H](CO)NC(=O)[C@H](Cc1ccc(O)cc1)NC(=O)[C@H](CC(=O)O)NC(=O)[C@H](CO)NC(=O)[C@@H](NC(=O)[C@H](Cc1ccccc1)NC(=O)[C@@H](NC(=O)CNC(=O)[C@H](CCC(N)=O)NC(=O)[C@H](CO)NC(=O)[C@@H](N)Cc1c[nH]cn1)[C@@H](C)O)[C@@H](C)O)C(=O)N[C@@H](CC(=O)O)C(=O)N[C@@H](CO)C(=O)N[C@@H](CCCCN)C(=O)N[C@@H](CCCNC(=N)N)C(=O)N[C@@H](C)C(=O)N[C@@H](CCC(N)=O)C(=O)N[C@@H](CCC(=O)O)C(=O)N[C@@H](Cc1ccccc1)C(=O)N[C@H](C(=O)N[C@@H](CCCCNC(=O)COCCOCCNC(=O)COCCOCCNC(=O)CC[C@H](NC(=O)CCCCCCCCCCCCCCCCC(=O)O)C(=O)O)C(=O)N[C@@H](Cc1c[nH]c2ccccc12)C(=O)N[C@@H](CC(C)C)C(=O)N[C@@H](CC(C)C)C(=O)N[C@@H](CCC(=O)O)C(=O)N[C@H](C(N)=O)[C@@H](C)O)C(C)C
B7: N^[24-([2-[2-[2-[[2-[2-[2-[[(4S)-5-hydroxy-4-[(18-hydroxy-18-oxooctadecanoyl)amino]-5-oxopentanoyl]amino]ethoxy]ethoxy]acetyl]amino]ethoxy]ethoxy]acetyl])[Lys^1 … (peptide)
peptide: HSQGTFTSDYSKYLDSKRAQEFVK([AEEA-AEEA-γGlu-C18 diacid])WLLNT-NH2
modifications: N-terminus assumed
SMILES: CC(C)C[C@H](NC(=O)[C@H](Cc1ccc(O)cc1)NC(=O)[C@H](CCCCN)NC(=O)[C@H](CO)NC(=O)[C@H](Cc1ccc(O)cc1)NC(=O)[C@H](CC(=O)O)NC(=O)[C@H](CO)NC(=O)[C@@H](NC(=O)[C@H](Cc1ccccc1)NC(=O)[C@@H](NC(=O)CNC(=O)[C@H](CCC(N)=O)NC(=O)[C@H](CO)NC(=O)[C@@H](N)Cc1c[nH]cn1)[C@@H](C)O)[C@@H](C)O)C(=O)N[C@@H](CC(=O)O)C(=O)N[C@@H](CO)C(=O)N[C@@H](CCCCN)C(=O)N[C@@H](CCCNC(=N)N)C(=O)N[C@@H](C)C(=O)N[C@@H](CCC(N)=O)C(=O)N[C@@H](CCC(=O)O)C(=O)N[C@@H](Cc1ccccc1)C(=O)N[C@H](C(=O)N[C@@H](CCCCNC(=O)COCCOCCNC(=O)COCCOCCNC(=O)CC[C@H](NC(=O)CCCCCCCCCCCCCCCCC(=O)O)C(=O)O)C(=O)N[C@@H](Cc1c[nH]c2ccccc12)C(=O)N[C@@H](CC(C)C)C(=O)N[C@@H](CC(C)C)C(=O)N[C@@H](CC(N)=O)C(=O)N[C@H](C(N)=O)[C@@H](C)O)C(C)C

Numbered stars: 1 amine (or outer) side, 2 acyl side, 3 side chain; on linkers, the order of the positions; unused ones are H or OH. Square brackets hold non-standard residues; d marks the D form. Side chains are listed from the residue outwards. Ends that are not written are not given here. * marks the point of attachment. C18 diacid = O=C(O)CCCCCCCCCCCCCCCCC(=O)*; γGlu = O=C(O)[C@H](CCC(=O)[*:2])N[*:1]; AEEA = NCCOCCOCC(=O)O; Aib = CC(C)(N)C(=O)O

Sequence of glucagon receptor (P47871 26-477 limits assumed): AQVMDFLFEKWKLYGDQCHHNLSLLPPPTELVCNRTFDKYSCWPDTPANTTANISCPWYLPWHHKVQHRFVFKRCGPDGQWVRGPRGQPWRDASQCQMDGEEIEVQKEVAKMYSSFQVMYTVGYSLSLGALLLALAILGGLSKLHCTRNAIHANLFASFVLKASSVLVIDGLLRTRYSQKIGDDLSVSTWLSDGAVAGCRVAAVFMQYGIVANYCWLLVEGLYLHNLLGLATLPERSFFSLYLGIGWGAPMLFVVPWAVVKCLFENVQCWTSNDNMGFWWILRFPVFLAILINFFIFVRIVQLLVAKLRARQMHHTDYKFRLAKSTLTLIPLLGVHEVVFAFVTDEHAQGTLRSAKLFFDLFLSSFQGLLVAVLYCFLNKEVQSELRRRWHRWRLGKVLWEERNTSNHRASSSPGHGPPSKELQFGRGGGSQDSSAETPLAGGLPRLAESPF

This assay has as its target glucagon receptor (UniProt P47871 26-477, limits assumed). Put plainly: cell-based or functional assay.
B1: the “Assay (I) Glucagon [EC50]” value is 33 pM.

As to B2, the “Assay (I) Glucagon [EC50]” value was found to be 7 pM.

For B3, the “Assay (I) Glucagon [EC50]” value came to 15 pM.

Take B4: the “Assay (I) Glucagon [EC50]” value is 48 pM.

For B5, the “Assay (I) Glucagon [EC50]” value came out at 7 pM.

Take HSQGTFTSDYSKYLDSKKAQEFVK([AEEA-AEEA-γGlu-C18 diacid])WLLNT: the “Assay (I) Glucagon [EC50]” value was 19 pM.

With B6, the “Assay (I) Glucagon [EC50]” value amounted to 3 pM.

Consider B7, for which the “Assay (I) Glucagon [EC50]” value came to 16 pM.
